Measured values published in patent US20210040161A1 (CALIFORNIA INSTITUTE OF TECHNOLOGY, published 2021).
Where a chain is given by its changes, count along the chain named. Names and notes keep the numbering of the source.

T1: TlpA_CC R179E (G1B)
T1 construct: Purified coiled-coil domain of TlpA used for CD; The entry already holds the initiating Met, the R179E mutation (numbered on full-length TlpA), C-terminal Leu-Gly and a His6 tag; also called TlpA-G1B (R179E); R179E variant
T1 chain: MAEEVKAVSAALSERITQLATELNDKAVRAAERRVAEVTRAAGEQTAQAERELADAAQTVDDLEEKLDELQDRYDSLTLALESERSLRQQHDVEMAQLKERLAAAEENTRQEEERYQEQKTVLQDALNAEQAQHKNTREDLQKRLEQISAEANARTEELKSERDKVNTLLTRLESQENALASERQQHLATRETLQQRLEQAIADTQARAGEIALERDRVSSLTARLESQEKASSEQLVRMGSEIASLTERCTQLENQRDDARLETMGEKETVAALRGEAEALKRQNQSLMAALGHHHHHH

B1: wild-type TlpA, full length, C-terminal HA tag (crosslinking construct) (other)
chain: MRPATYEPEQIIEAGLALQAEGRNITGFALRNQVGGGNPTRLRQIWDEYQASQSTVVTEPVAELPVEVAEEVKAVSAALSERITQLATELNDKAVRAAERRVAEVTRAAGEQTAQAERELADAAQTVDDLEEKLDELQDRYDSLTLALESERSLRQQHDVEMAQLKERLAAAEENTRQREERYQEQKTVLQDALNAEQAQHKNTREDLQKRLEQISAEANARTEELKSERDKVNTLLTRLESQENALASERQQHLATRETLQQRLEQAIADTQARAGEIALERDRVSSLTARLESQEKASSEQLVRMGSEIASLTERCTQLENQRDDARLETMGEKETVAALRGEAEALKRQNQSLMAALSGNKQTGGQNA
notes: also called wt; not shown: C-terminal HA tag
B2: TlpA_CC E180R (G1A) (designed binder)
chain: T1 chain with E112R, E113R
notes: Purified coiled-coil domain of TlpA used for CD; The entry already holds the initiating Met, the E180R mutation (numbered on full-length TlpA), C-terminal Leu-Gly and a His6 tag; also called TlpA-G1A (E180R); E180R variant

Tests used:
[1] = molecular target: the molecule itself; test: CuCl2 crosslinking in E. coli lysate, SDS-PAGE, anti-HA Western; full-length homodimer band
TlpA_CC R179E (G1B) = molecular target: T1, TlpA_CC R179E (G1B); test: CD melting curve at 222 nm, purified coiled-coil domains, 3 uM in PBS

Binder | binding result [1] | binding result (TlpA_CC R179E (G1B))
B1 | binds | –
B2 | – | binds
